# US20150064751
# Test system: cleavage control protein containing an enterokinase cleavage site (Asp-Asp-Asp-Asp-Lys)
substance,measurement,value
recombinant enterokinase (Novagen),"protease cleavage, detection of the 16 kDa cleavage fragment by immunoblot (2 h, room temperature)",The target protein was specifically cleaved by recombinant enterokinase (lane 2)
